Test results published in patent US11180733B2, “Method of generating mesenchymal stem cells and uses thereof” (AGENCY FOR SCIENCE, TECHNOLOGY AND RESEARCH, priority 2016, dated 2021).
Entries after “also recorded” stand apart in the source; their conditions may differ.

How the values were obtained:
[1] = test system: human induced pluripotent stem cells (iPSCs); assay: Differentiation of iPSCs towards primitive streak (PS)-like mesendoderm (morphology, qPCR); assay type: cell-based
Description: BJC1-iPSCs were differentiated towards primitive streak-like mesendoderm cells for 2 days with indicated combination of CHIR99021 (3 μM) and FGF (20 ng/ml) in conjunction with the indicated signaling perturbations, qPCR was performed at day 2. […] FIG. 9C represents data from FACS analysis showing more than 97% cells at day 2 were positive for primitive streak genes MIXL1, Brachyury (T) and GSC. FIG. 9D represents the immunofluoresence results at day 2 showing the expression of MIXL1, Brachyury (T) and GSC after 2 day of primitive streak induction.
iPSCs from MRCS or BJ cell lines, or hESCs were differentiated into primitive streak-like mesendoderm cells and primitive streak mesendoderm cells respectively. Feeder-free iPSCs were maintained in mTeSR (Stem Cell Technologies) before differentiation. To differentiate iPSCs, iPSCs were digested with 1 mg/ml collagenase IV for 5-10 min at 37° C. into small clumps and placed on a fibronectin (FN, 10 μg/ml)-coated surface in medium containing activin A (25 ng/ml) and CHIR99021 (3 μM) for 1 day in a basal medium (DMEM: F12, 1% ITS, 2% B27, 2 mM L-Glutamine, 90 uM ß-mercaptoethanol), followed by Activin A (25 ng/ml), CHIR99021 (3 μM) and FGF (20 ng/ml) for subsequent 24 hours to differentiate toward primitive streak (PS)-like mesendoderm.
Quantitative real-time PCR was performed with Taqman expression assay using ABI PRISM 7900HT sequence Detection System (Applied Biosystems). Briefly, […] of total RNA was converted to cDNA using high capacity cDNA archive kit in 30 μl and then diluted to 500 μl. Quantitative real-time PCR was done as follows: initial denaturation for 2 min at 50° C., 10 min at 95° C., following 40 cycles of PCR (95° C. for 15 s, 60° C. for 1 min) by using 5 μl of 2× Master mix, 0.5 μl of probe and 4.5 μl of cDNA. All probes were designed with a 5′ fluoregenic 6-carboxylfluorescein, and a 3′ quencher, tetramethyl-6-carboxyrhodamine. The expression of human GAPDH was used to normalize gene expression levels.

[2] = test system: BJC1-iPSCs; assay: Differentiation of PS-like mesendoderm towards lateral plate-like mesoderm (qPCR, cell number at day 10); assay type: cell-based, human
Description: BJC1-iPSCs were differentiated towards mesoderm after 8 days of differentiation with indicated combination of FGF (20 ng/ml), Rock inhibitor Y27632 (5 uM) and Follistatin (100 ng/ml) in conjunction with the indicated signaling perturbations, qPCR was performed at day 10. […] BJC1-iPSCs were differentiated towards mesoderm after 8 days of differentiation with indicated combination of FGF (20 ng/ml), BMP4 (40 ng/ml), and Rock inhibitor Y27632 (5 uM) in conjunction with the indicated signaling perturbations, qPCR was performed at day 10. […] Mesoderm differentiation was induced with FGF (20 ng/ml), BMP4 (40 ng/ml), rock inhibitor Y27632 (5 μM, only used at the time of passage and remove the next day) and follistatin (100 ng/ml) for 8 days. Quantitative real-time PCR was performed with Taqman expression assay using ABI PRISM 7900HT sequence Detection System (Applied Biosystems). Briefly, […] of total RNA was converted to cDNA using high capacity cDNA archive kit in 30 μl and then diluted to 500 μl. Quantitative real-time PCR was done as follows: initial denaturation for 2 min at 50° C., 10 min at 95° C., following 40 cycles of PCR (95° C. for 15 s, 60° C. for 1 min) by using 5 μl of 2× Master mix, 0.5 μl of probe and 4.5 μl of cDNA. All probes were designed with a 5′ fluoregenic 6-carboxylfluorescein, and a 3′ quencher, tetramethyl-6-carboxyrhodamine. The expression of human GAPDH was used to normalize gene expression levels.

[3] = compared with wnt3a (ACF vs AWF)
[4] = with FGF 20 ng/ml, BMP4 40 ng/ml, Y27632 5 uM, qPCR at day 10

Molecule: FGF: fibroblast growth factor; in one specific example FGF2
- differentiation toward PS-like mesendoderm ([1]; addition of FGF at day 2): did not further enhance differentiation toward PS-like mesendoderm
- expression of mesoderm ([1]; in the presence of FGF at day 2): expression of mesoderm increased

Molecule: C[C@@H](N)[C@H]1CC[C@H](C(=O)Nc2ccncc2)CC1.Cl.Cl [Y27632, (R)-(+)-trans-4-(1-Aminoethyl)-N-(4-Pyridyl)cyclohexanecarboxamide dihydrochloride, reference compound]
- expression of lateral plate mesoderm genes Hand1 and FOXF1 ([2]; compared to NT4, dihydrochloride): increased the expression of lateral plate mesoderm genes Hand1 and FOXF1; also recorded: significantly increases the expression of lateral plate mesoderm genes
- increase in cell number ([2]; compared with neurotrophi-4 (NT), day 10): 3.53±1.56 fold

Molecule: Cc1cnc(-c2cnc(NCCNc3ccc(C#N)cn3)nc2-c2ccc(Cl)cc2Cl)[nH]1 [CHIR99021, 6-[2-[[4-(2,4-dichlorophenyl)-5-(5-methyl-1H-imidazol-2-yl)pyrimidin-2-yl]amino]ethylamino]pyridine-3-carbonitrile, reference compound]
- adherence of iPSCs to the dish [1, 3]: promoted the adherence of iPSCs to the dish
- differentiation toward PS-like mesendoderm [1, 3]: promoted differentiation toward PS-like mesendoderm

B1: activin A: Activin A formed by two activin βA subunits, member of the TGF-β superfamily (protein, UniProt P08476 311-426, looked up)
Inhibin beta A chain: GLECDGKVNICCKKQFFVSFKDIGWNDWIIAPSGYHANYCEGECPSHIAGTSGSSLSFHSTVINHYRMRGHSPFANLKSCCVPTKLRPMSMLYYDDGQNIIKKDIQNMIVEECGCS
modifications: Inhibin beta A chain
- differentiation towards PS-like mesendoderm expressing T, MIXL1 and GSC ([1]; activin 25-100 ng/ml with CHIR99021 3 μM and FGF 20 ng/ml, qPCR at day 2): enhanced differentiation towards PS-like mesendoderm
- expression of endodermal marker Sox17 ([1]; activin 25-100 ng/ml, qPCR at day 2): increased with the dose
- activin A concentration at which the ratio of increased MIXL1 or T to Sox17 was the highest ([1]; qPCR at day 2): 25 ng/mL

B2: follistatin: protein encoded by the FST gene (protein, UniProt P19883 30-344, looked up)
Follistatin: GNCWLRQAKNGRCQVLYKTELSKEECCSTGRLSTSWTEEDVNDNTLFKWMIFNGGAPNCIPCKETCENVDCGPGKKCRMNKKNKPRCVCAPDCSNITWKGPVCGLDGKTYRNECALLKARCKEQPELEVQYQGRCKKTCRDVFCPGSSTCVVDQTNNAYCVTCNRICPEPASSEQYLCGNDGVTYSSACHLRKATCLLGRSIGLAYEGKCIKAKSCEDIQCTGGKKCLWDFKVGRGRCSLCDELCPDSKSDEPVCASDNATYASECAMKEAACSSGVLLEVKHSGSCNSISEDTEEEEEDEDQDYSFPISSILEW
- expression of lateral plate mesoderm genes Hand1 and FOXF1 and mesenchymal stem cell genes CD44 and CD105 ([2]; presence compared to absence of Follistatin, qPCR at day 10): significantly increases the expression
- endodermal differentiation Sox17 and FOXA1 [2, 4]: inhibited endodermal differentiation
- mesodermal differentiation [2, 4]: promoting mesodermal differentiation

B3: BMP4: bone morphogenetic protein (protein, UniProt P12644 293-408, looked up)
Bone morphogenetic protein 4: SPKHHSQRARKKNKNCRRHSLYVDFSDVGWNDWIVAPPGYQAFYCHGDCPFPLADHLNSTNHAIVQTLVNSVNSSIPKACCVPTELSAISMLYLDEYDKVVLKNYQEMVVEGCGCR
- BMP4 concentration that led to the highest expression of lateral plate mesoderm markers ([2]; with FGF 20 ng/ml, Y27632 5 uM, Follistatin 100 ng/ml, qPCR at day 10): 40 ng/mL

B4: noggin: antagonism of BMP signaling (protein, UniProt Q13253 28-232, looked up)
Noggin: QHYLHIRPAPSDNLPLVDLIEHPDPIFDPKEKDLNETLLRSLLGGHYDPGFMATSPPEDRPGGGGGAAGGAEDLAELDQLLRQRPSGAMPSEIKGLEFSEGLAQGKKQRLSKKLRRKLQMWLWSQTFCPVLYAWNDLGSRFWPRYVKVGSCFSKRSCSVPEGMVCKPSKSVHLTVLRWRCQRRGGQRCGWIPIQYPIISECKCSC
- expression of ectodermal gene Sox1 ([2]; in the absence of BMP4 or in the presence of noggin, qPCR at day 10): 38.65 fold
